This series deals with T1, FH-DHX36 (RHAU, G4R1) (human (expressed in HEK293 T-REx Flp-In …, UniProt Q9H2U1 1-1008)).
T1 sequence: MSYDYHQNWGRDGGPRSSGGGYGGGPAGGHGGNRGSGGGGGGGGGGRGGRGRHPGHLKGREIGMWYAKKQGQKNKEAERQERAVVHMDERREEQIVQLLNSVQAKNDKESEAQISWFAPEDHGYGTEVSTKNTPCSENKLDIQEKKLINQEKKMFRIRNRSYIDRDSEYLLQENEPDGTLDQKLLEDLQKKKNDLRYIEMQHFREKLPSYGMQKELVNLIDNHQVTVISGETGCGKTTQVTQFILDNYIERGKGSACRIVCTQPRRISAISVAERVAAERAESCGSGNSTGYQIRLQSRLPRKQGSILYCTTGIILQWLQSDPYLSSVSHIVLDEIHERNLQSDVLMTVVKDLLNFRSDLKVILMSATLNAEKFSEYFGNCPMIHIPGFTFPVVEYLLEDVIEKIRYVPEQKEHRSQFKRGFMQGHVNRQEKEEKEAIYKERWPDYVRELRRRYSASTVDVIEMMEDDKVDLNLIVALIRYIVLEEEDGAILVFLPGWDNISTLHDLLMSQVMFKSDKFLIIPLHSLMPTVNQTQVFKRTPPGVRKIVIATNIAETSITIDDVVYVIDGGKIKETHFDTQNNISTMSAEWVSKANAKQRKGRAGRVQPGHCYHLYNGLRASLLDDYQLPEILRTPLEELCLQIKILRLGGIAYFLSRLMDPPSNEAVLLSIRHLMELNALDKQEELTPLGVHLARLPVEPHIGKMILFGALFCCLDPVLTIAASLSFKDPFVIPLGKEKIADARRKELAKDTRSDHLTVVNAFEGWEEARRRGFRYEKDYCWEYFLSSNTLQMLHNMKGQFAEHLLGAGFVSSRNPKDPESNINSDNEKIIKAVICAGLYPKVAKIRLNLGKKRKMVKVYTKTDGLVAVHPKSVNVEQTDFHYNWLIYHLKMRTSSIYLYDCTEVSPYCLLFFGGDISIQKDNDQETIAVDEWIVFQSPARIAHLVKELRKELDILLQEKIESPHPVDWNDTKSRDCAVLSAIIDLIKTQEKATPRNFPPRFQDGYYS
Briefly: MST; 25 nM oligonucleotide, DHX36 up to 50 nM; MST: 1x MST buffer (composition not stated), 0.5% BSA, 5 mM DTT; 25 nM Cy5 oligo (folding buffer for CD oligos: 10 mM Tris pH 7.5, 100 mM KCl, 1 mM EDTA); temperature not stated. The following applies: protein: recombinant, tags: N-terminal FLAG-HA (pFRT-FlagHA vector), label: 5'-Cy5.

B1: mutated DHX36 RRE for MST (ssDNA)
DNA: AAAAAGCAGCAGGAGCAGCA
B1: the binding result (no G4 signature (CD on the longer A10 version)) is “no binding”.

B2: DHX36 RRE for MST (G-rich PAR-CLIP motif) (structured_DNA)
DNA: AAAAAGGAGGAGGAGGAGGA
Regarding B2, under “parallel G4 (CD on the longer A10 version)”, the binding result is reported as “binds”.

The values above are taken from article doi:10.1101/215541, “DHX36 binding at G-rich sites in mRNA untranslated regions promotes translation”.
